# Experimental data from US12214008B2, “Protein interfaces” (SyntheX, Inc., priority 2016, dated 2025).
# Changes are numbered by the printed parent chain.
# Tests used:
# Type in all cases: binding
# [1] = test system: C.albicans Rad51; assay: Y2H assay RAD51/SEQ ID NO.: 5 pair; design: key: cells having the interaction would survive (+); cells not having the interaction would die (−) on selective media (−ADE, −HIS)
# Procedure: (§1) RAD51-binding peptides were tested for ability to bind RAD51 of several different species using a “conventional” Y2H assay, where interaction between the two-hybrid pair drove expression of ADE2 and HIS genes.
# [2] = test system: D.rerio Rad51; assay: Y2H assay RAD51/SEQ ID NO.: 5 pair; design: key: cells having the interaction would survive (+); cells not having the interaction would die (−) on selective media (−ADE, −HIS)
# Procedure: as §1
# [3] = biological target: T1, Rad51 (A190L; A192L) (Homo sapiens, UniProt Q06609, A190L/A192L); assay: Y2H assay, human RAD51 mutants; design: key: (+) denotes a successful interaction between the two Y2H baits; (−) denotes a lack of interaction
# T1 construct: expressed in transfected cells
# T1 sequence (Q06609 1-339 A190L/A192L): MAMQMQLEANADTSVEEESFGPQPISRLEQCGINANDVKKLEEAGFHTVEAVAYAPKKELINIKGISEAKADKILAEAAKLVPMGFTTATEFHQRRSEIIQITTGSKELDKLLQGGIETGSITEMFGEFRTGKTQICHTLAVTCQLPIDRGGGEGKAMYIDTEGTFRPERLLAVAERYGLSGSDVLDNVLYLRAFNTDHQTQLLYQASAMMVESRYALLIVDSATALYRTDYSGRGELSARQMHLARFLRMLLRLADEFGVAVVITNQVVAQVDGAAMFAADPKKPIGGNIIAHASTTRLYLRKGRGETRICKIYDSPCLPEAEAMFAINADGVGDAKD
# Procedure: (§2) The ability of peptides to bind human RAD51 with various mutations was then tested by Y2H assay. […] While mutations affecting BRCA2 binding had no effect on peptide binding, mutations that affected RAD51-AP1 binding did disrupt peptide binding. As these mutations were at residues 202, 205, and 206, they were consistent with the previous fusion data showing binding somewhere in the 190-218 region, and indicated the peptide SEQ ID NO.: 5 contacts at least residues 202, 205, and 206 of RAD51.
# [4] = biological target: T2, Rad51 (F86E; A89E) (Homo sapiens, UniProt Q06609, A89E/F86E); assay: Y2H assay, human RAD51 mutants; design: key: (+) denotes a successful interaction between the two Y2H baits; (−) denotes a lack of interaction
# T2 construct: expressed in transfected cells
# T2 sequence (Q06609 1-339 F86E/A89E): T1 sequence (Q06609 1-339 A190L/A192L) with F86E, A89E, L190A, L192A
# Procedure: as §2
# [5] = biological target: T3, Rad51 (Q202R, Y205D, Q206A) (Homo sapiens, UniProt Q06609, Q202R/Q206A/Y205D); assay: Y2H assay, human RAD51 mutants; design: key: (+) denotes a successful interaction between the two Y2H baits; (−) denotes a lack of interaction
# T3 construct: expressed in transfected cells
# T3 sequence (Q06609 1-339 Q202R/Y205D/Q206A): T1 sequence (Q06609 1-339 A190L/A192L) with L190A, L192A, Q202R, Y205D, Q206A
# Procedure: as §2
# [6] = biological target: T4, Rad51 (S208E; A209D) (Homo sapiens, UniProt Q06609, A209D/S208E); assay: Y2H assay, human RAD51 mutants; design: key: (+) denotes a successful interaction between the two Y2H baits; (−) denotes a lack of interaction
# T4 construct: expressed in transfected cells
# T4 sequence (Q06609 1-339 S208E/A209D): T1 sequence (Q06609 1-339 A190L/A192L) with L190A, L192A, S208E, A209D
# Procedure: as §2
# [7] = biological target: T5, Rad51 (S208L; A209E; M210A) (Homo sapiens, UniProt Q06609, A209E/M210A/S208L); assay: Y2H assay, human RAD51 mutants; design: key: (+) denotes a successful interaction between the two Y2H baits; (−) denotes a lack of interaction
# T5 construct: expressed in transfected cells
# T5 sequence (Q06609 1-339 S208L/A209E/M210A): T1 sequence (Q06609 1-339 A190L/A192L) with L190A, L192A, S208L, A209E, M210A
# Procedure: as §2
sequence,measurement,setting,value
KRRRRRRRKRLGVRLRVSRML [SEQ ID NO.: 5],Compound 5 Sequence Binding,[1],+
same,Compound 5 Sequence Binding,[2],+
same,Y2H interaction with SEQ ID NO.: 5,[3],+
same,Y2H interaction with SEQ ID NO.: 5,[4],+
same,Y2H interaction with SEQ ID NO.: 5,[5],−
same,Y2H interaction with SEQ ID NO.: 5,[6],+
same,Y2H interaction with SEQ ID NO.: 5,[7],+
